{
  "source": "paper PMC9482650",
  "about": "“Quantitative fragmentomics allow affinity mapping of interactomes” (Nature Communications, 2022)",
  "data": [
    {"target": "T1, APBA3_2, O96018", "T1 sequence (O96018 480-570, limits assumed, looked up)": "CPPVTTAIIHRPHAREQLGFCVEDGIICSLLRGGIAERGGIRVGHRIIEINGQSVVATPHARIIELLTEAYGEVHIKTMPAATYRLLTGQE", "test": "holdup assay", "set-up": "key: below the threshold = too weak to quantify, mostly under pKd 3.1 to 4", "conditions": "plain residues with an end cap or a label only (N-terminal biotin on a linker: ttds)", "values": [
      {"binder": "IQREDQETAV", "note": "[DGKZ, Q13574]", "pKd": 4.74}
    ]},
    {"target": "T2, CNKSR1, Q969H4", "T2 sequence (Q969H4 191-295, limits assumed, looked up)": "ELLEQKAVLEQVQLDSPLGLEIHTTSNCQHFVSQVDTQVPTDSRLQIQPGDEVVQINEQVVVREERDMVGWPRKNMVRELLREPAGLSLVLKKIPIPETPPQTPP", "test": "holdup assay", "set-up": "key: below the threshold = too weak to quantify, mostly under pKd 3.1 to 4", "conditions": "plain residues with an end cap or a label only (N-terminal biotin on a linker: ttds)", "values": [
      {"binder": "IQREDQETAV", "note": "[DGKZ, Q13574]", "pKd": "below the threshold"}
    ]},
    {"target": "MAGI1_3, Q96QZ7", "sequence (Q96QZ7 638-725)": "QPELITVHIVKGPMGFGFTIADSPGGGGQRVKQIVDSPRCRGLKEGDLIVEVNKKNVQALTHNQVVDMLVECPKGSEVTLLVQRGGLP", "test": "holdup assay", "set-up": "key: below the threshold = too weak to quantify, mostly under pKd 3.1 to 4", "conditions": "plain residues with an end cap or a label only (N-terminal biotin on a linker: ttds)", "values": [
      {"binder": "IQREDQETAV", "note": "[DGKZ, Q13574]", "pKd": 4.57}
    ]},
    {"target": "T3, MPDZ_2, O75970", "T3 sequence (O75970 252-347, limits assumed, looked up)": "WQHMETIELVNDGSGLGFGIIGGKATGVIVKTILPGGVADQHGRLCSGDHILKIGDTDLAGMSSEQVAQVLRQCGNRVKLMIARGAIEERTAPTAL", "test": "holdup assay", "set-up": "key: below the threshold = too weak to quantify, mostly under pKd 3.1 to 4", "conditions": "plain residues with an end cap or a label only (N-terminal biotin on a linker: ttds)", "values": [
      {"binder": "IQREDQETAV", "note": "[DGKZ, Q13574]", "pKd": "below the threshold"}
    ]},
    {"target": "T4, NHERF1_2, O14745", "T4 sequence (O14745 149-244, limits assumed, looked up)": "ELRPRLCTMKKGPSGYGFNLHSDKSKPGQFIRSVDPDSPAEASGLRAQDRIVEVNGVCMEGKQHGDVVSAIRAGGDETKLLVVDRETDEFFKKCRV", "test": "holdup assay", "set-up": "key: below the threshold = too weak to quantify, mostly under pKd 3.1 to 4", "conditions": "plain residues with an end cap or a label only (N-terminal biotin on a linker: ttds)", "values": [
      {"binder": "IQREDQETAV", "note": "[DGKZ, Q13574]", "pKd": "below the threshold"}
    ]},
    {"target": "NHERF4_3, Q86UT5", "sequence (Q86UT5 325-412)": "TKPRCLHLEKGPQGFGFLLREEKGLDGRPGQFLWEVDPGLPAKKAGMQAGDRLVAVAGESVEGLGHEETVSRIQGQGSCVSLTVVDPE", "test": "holdup assay", "set-up": "key: below the threshold = too weak to quantify, mostly under pKd 3.1 to 4", "conditions": "plain residues with an end cap or a label only (N-terminal biotin on a linker: ttds)", "values": [
      {"binder": "IQREDQETAV", "note": "[DGKZ, Q13574]", "pKd": "below the threshold"}
    ]},
    {"target": "O00560", "test": "holdup assay", "set-up": "key: below the threshold = too weak to quantify, mostly under pKd 3.1 to 4", "conditions": "plain residues with an end cap or a label only (N-terminal biotin on a linker: ttds)", "values": [
      {"binder": "IQREDQETAV", "note": "[DGKZ, Q13574]", "pKd": "below the threshold"}
    ]},
    {"target": "O15021", "test": "holdup assay", "set-up": "key: below the threshold = too weak to quantify, mostly under pKd 3.1 to 4", "conditions": "plain residues with an end cap or a label only (N-terminal biotin on a linker: ttds)", "values": [
      {"binder": "IQREDQETAV", "note": "[DGKZ, Q13574]", "pKd": "below the threshold"}
    ]},
    {"target": "PARD3B_3, Q8TEW8", "sequence (Q8TEW8 490-594)": "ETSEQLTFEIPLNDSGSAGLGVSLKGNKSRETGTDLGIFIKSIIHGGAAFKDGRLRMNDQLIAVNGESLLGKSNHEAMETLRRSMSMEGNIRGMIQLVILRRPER", "test": "holdup assay", "set-up": "key: below the threshold = too weak to quantify, mostly under pKd 3.1 to 4", "conditions": "plain residues with an end cap or a label only (N-terminal biotin on a linker: ttds)", "values": [
      {"binder": "IQREDQETAV", "note": "[DGKZ, Q13574]", "pKd": "below the threshold"}
    ]},
    {"target": "PDLIM4, P50479", "sequence (P50479 1-83)": "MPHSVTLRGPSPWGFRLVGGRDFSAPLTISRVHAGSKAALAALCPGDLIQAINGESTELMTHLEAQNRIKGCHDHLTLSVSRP", "test": "holdup assay", "set-up": "key: below the threshold = too weak to quantify, mostly under pKd 3.1 to 4", "conditions": "plain residues with an end cap or a label only (N-terminal biotin on a linker: ttds)", "values": [
      {"binder": "IQREDQETAV", "note": "[DGKZ, Q13574]", "pKd": "below the threshold"}
    ]},
    {"target": "T5, PDZD2_3, O15018", "T5 sequence (O15018 581-682, limits assumed, looked up)": "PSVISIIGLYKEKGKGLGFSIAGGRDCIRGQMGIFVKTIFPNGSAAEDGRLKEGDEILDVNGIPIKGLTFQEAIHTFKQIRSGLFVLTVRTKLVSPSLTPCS", "test": "holdup assay", "set-up": "key: below the threshold = too weak to quantify, mostly under pKd 3.1 to 4", "conditions": "plain residues with an end cap or a label only (N-terminal biotin on a linker: ttds)", "values": [
      {"binder": "IQREDQETAV", "note": "[DGKZ, Q13574]", "pKd": "below the threshold"}
    ]},
    {"target": "T6, PDZD7_2, Q9H5P4", "T6 sequence (Q9H5P4 205-303, limits assumed, looked up)": "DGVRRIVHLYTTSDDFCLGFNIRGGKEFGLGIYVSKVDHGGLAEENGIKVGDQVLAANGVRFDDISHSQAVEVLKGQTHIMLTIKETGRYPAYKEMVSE", "test": "holdup assay", "set-up": "key: below the threshold = too weak to quantify, mostly under pKd 3.1 to 4", "conditions": "plain residues with an end cap or a label only (N-terminal biotin on a linker: ttds)", "values": [
      {"binder": "IQREDQETAV", "note": "[DGKZ, Q13574]", "pKd": "below the threshold"}
    ]},
    {"target": "T7, PTPN13_4, Q12923", "T7 sequence (Q12923 1783-1878, limits assumed, looked up)": "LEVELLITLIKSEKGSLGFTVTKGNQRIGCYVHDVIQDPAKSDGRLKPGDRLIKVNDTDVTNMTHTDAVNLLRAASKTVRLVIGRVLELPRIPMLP", "test": "holdup assay", "set-up": "key: below the threshold = too weak to quantify, mostly under pKd 3.1 to 4", "conditions": "plain residues with an end cap or a label only (N-terminal biotin on a linker: ttds)", "values": [
      {"binder": "IQREDQETAV", "note": "[DGKZ, Q13574]", "pKd": "below the threshold"}
    ]},
    {"target": "T8, PTPN13_5, Q12923", "T8 sequence (Q12923 1877-1975, limits assumed, looked up)": "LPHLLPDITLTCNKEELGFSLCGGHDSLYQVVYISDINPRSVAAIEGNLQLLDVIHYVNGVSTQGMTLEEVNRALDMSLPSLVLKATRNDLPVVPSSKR", "test": "holdup assay", "set-up": "key: below the threshold = too weak to quantify, mostly under pKd 3.1 to 4", "conditions": "plain residues with an end cap or a label only (N-terminal biotin on a linker: ttds)", "values": [
      {"binder": "IQREDQETAV", "note": "[DGKZ, Q13574]", "pKd": "below the threshold"}
    ]},
    {"target": "Q5TCQ9", "test": "holdup assay", "set-up": "key: below the threshold = too weak to quantify, mostly under pKd 3.1 to 4", "conditions": "plain residues with an end cap or a label only (N-terminal biotin on a linker: ttds)", "values": [
      {"binder": "IQREDQETAV", "note": "[DGKZ, Q13574]", "pKd": "below the threshold"}
    ]},
    {"target": "Q6ZWJ1", "test": "holdup assay", "set-up": "key: below the threshold = too weak to quantify, mostly under pKd 3.1 to 4", "conditions": "plain residues with an end cap or a label only (N-terminal biotin on a linker: ttds)", "values": [
      {"binder": "IQREDQETAV", "note": "[DGKZ, Q13574]", "pKd": "below the threshold"}
    ]},
    {"target": "Q92614", "test": "holdup assay", "set-up": "key: below the threshold = too weak to quantify, mostly under pKd 3.1 to 4", "conditions": "plain residues with an end cap or a label only (N-terminal biotin on a linker: ttds)", "values": [
      {"binder": "IQREDQETAV", "note": "[DGKZ, Q13574]", "pKd": "below the threshold"}
    ]},
    {"target": "Q96FS4", "test": "holdup assay", "set-up": "key: below the threshold = too weak to quantify, mostly under pKd 3.1 to 4", "conditions": "plain residues with an end cap or a label only (N-terminal biotin on a linker: ttds)", "values": [
      {"binder": "IQREDQETAV", "note": "[DGKZ, Q13574]", "pKd": "below the threshold"}
    ]},
    {"target": "Q96HC4", "test": "holdup assay", "set-up": "key: below the threshold = too weak to quantify, mostly under pKd 3.1 to 4", "conditions": "plain residues with an end cap or a label only (N-terminal biotin on a linker: ttds)", "values": [
      {"binder": "IQREDQETAV", "note": "[DGKZ, Q13574]", "pKd": "below the threshold"}
    ]},
    {"target": "Q96JB8", "test": "holdup assay", "set-up": "key: below the threshold = too weak to quantify, mostly under pKd 3.1 to 4", "conditions": "plain residues with an end cap or a label only (N-terminal biotin on a linker: ttds)", "values": [
      {"binder": "IQREDQETAV", "note": "[DGKZ, Q13574]", "pKd": "below the threshold"}
    ]},
    {"target": "Q96JY6", "test": "holdup assay", "set-up": "key: below the threshold = too weak to quantify, mostly under pKd 3.1 to 4", "conditions": "plain residues with an end cap or a label only (N-terminal biotin on a linker: ttds)", "values": [
      {"binder": "IQREDQETAV", "note": "[DGKZ, Q13574]", "pKd": "below the threshold"}
    ]},
    {"target": "RGS3, P49796-9", "sequence (P49796 other isoform, or with tags, fused parts or gaps)": "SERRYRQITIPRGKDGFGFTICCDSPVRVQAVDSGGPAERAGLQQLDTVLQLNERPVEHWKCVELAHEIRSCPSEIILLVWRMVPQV", "test": "holdup assay", "set-up": "key: below the threshold = too weak to quantify, mostly under pKd 3.1 to 4", "conditions": "plain residues with an end cap or a label only (N-terminal biotin on a linker: ttds)", "values": [
      {"binder": "IQREDQETAV", "note": "[DGKZ, Q13574]", "pKd": "below the threshold"}
    ]},
    {"target": "T9, SHROOM4, Q9ULL8", "T9 sequence (Q9ULL8 5-102, limits assumed, looked up)": "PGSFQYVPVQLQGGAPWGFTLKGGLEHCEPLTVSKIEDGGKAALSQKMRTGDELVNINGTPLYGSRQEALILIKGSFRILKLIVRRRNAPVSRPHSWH", "test": "holdup assay", "set-up": "key: below the threshold = too weak to quantify, mostly under pKd 3.1 to 4", "conditions": "plain residues with an end cap or a label only (N-terminal biotin on a linker: ttds)", "values": [
      {"binder": "IQREDQETAV", "note": "[DGKZ, Q13574]", "pKd": 4.76}
    ]},
    {"target": "T10, SNTB2, Q13425", "T10 sequence (Q13425 110-208, limits assumed, looked up)": "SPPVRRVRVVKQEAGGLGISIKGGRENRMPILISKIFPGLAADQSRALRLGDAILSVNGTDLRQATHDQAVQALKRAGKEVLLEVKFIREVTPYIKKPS", "test": "holdup assay", "set-up": "key: below the threshold = too weak to quantify, mostly under pKd 3.1 to 4", "conditions": "plain residues with an end cap or a label only (N-terminal biotin on a linker: ttds)", "values": [
      {"binder": "IQREDQETAV", "note": "[DGKZ, Q13574]", "pKd": 5.16}
    ]},
    {"target": "T11, TJP3_1, O95049", "T11 sequence (O95049 6-103, limits assumed, looked up)": "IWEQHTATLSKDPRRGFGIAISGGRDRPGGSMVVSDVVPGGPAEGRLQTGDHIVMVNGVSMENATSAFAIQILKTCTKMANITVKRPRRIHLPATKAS", "test": "holdup assay", "set-up": "key: below the threshold = too weak to quantify, mostly under pKd 3.1 to 4", "conditions": "plain residues with an end cap or a label only (N-terminal biotin on a linker: ttds)", "values": [
      {"binder": "IQREDQETAV", "note": "[DGKZ, Q13574]", "pKd": "below the threshold"}
    ]},
    {"target": "T12, USH1C_2, Q9Y6N9", "T12 sequence (Q9Y6N9 206-303, limits assumed, looked up)": "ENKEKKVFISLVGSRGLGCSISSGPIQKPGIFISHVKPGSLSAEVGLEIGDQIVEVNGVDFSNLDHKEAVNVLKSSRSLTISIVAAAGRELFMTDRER", "test": "holdup assay", "set-up": "key: below the threshold = too weak to quantify, mostly under pKd 3.1 to 4", "conditions": "plain residues with an end cap or a label only (N-terminal biotin on a linker: ttds)", "values": [
      {"binder": "IQREDQETAV", "note": "[DGKZ, Q13574]", "pKd": "below the threshold"}
    ]}
  ]
}
